Data on seven molecules can be found in patent US20140294884A1 (Novartis, published 2014).

Data set [1] deals with receptor for App on Chang conjunctiva epithelial cells (proteinaceous, not identified) (human). The experiment in a line: cell-based or functional assay.
Data set [2] has the same target. Nature of the data set: FACS binding assay on Chang cells (FIG. 35). In general terms: A flow cytometer gives signals particle by particle.
For data set [3], the target named is human receptor for NadA on Chang conjunctiva epithelial cells (pronase-sensitive protein, not identified) (human). The experiment in a line: FACS on Chang cells, MFI against protein concentration.
Data set [4] deals with the molecule itself. The experiment in a line: Western blot of whole cell lysates with anti-NadA serum (self-association).

In the case of “Appβ expressed on the surface of E. coli (pET-Appβ transformants)”, the fluorescence shift, FACS adhesion of E. coli to Chang cells in data set [1] came to 74.2%. In the case of “App expressed from the full-length gene on the surface of E. coli (pET-App transformants)”, the fluorescence shift (cells positive to adhesion), FACS adhesion of E. coli to Chang cells in data set [1] came out at 90.3%.

App-His displayed a concentration at which binding reaches a plateau in data set [2] of 50 µg/mL. With “App S267A expressed on the surface of E. coli (pET-AppS267A transformants)”, the fluorescence shift (cells positive to adhesion), FACS adhesion of E. coli to Chang cells in data set [1] came to 91%. Molecule “NadA (purified recombinant protein used in FACS binding to Chang cells)” returned a concentration at which binding reaches a plateau in data set [3] of 200 µg/mL.

B1: NadA allele 2 (strain 90/18311) (other)
chain: ATNDDDVKKAATVAIAAAYNNGQEINGFKAGETIYDIDEDGTITKKDATAADVEADDFKGLGLKKVVTNLTKTVNENKQNVDAKVKAAESEIEKLTTKLADTDAALDATTNALNKLGENITTFAEETKTNIVKIDEKLEAVADTVDKHAEAFNDIADSLDETNTKADEAVKTANEAKQTAEETKQNVDAKVKAAETAAGKAEAAAGTANTAADKAEAVAAKVTDIKADIATNKDNIAKKANSADVYTREESDSKFVRIDGLNATTEKLDTRLASAEKSITEHGTRLNGLDRTVSDLRKETRQGLAEQAALSGLFQPYNVGRFNVTAAVGGYKSESAVAIGTGFRFTENFAAKAGVAVGTSSGSSAAYHVGVNYEW
notes: also called allele 2 of 961
With B1, the binding result in data set [4] is reported as “binds”.

B2: NadA allele 1 (strain MC58) (other)
chain: ATSDDDVKKAATVAIVAAYNNGQEINGFKAGETIYDIGEDGTITQKDATAADVEADDFKGLGLKKVVTNLTKTVNENKQNVDAKVKAAESEIEKLTTKLADTDAALADTDAALDETTNALNKLGENITTFAEETKTNIVKIDEKLEAVADTVDKHAEAFNDIADSLDETNTKADEAVKTANEAKQTAEETKQNVDAKVKAAETAAGKAEAAAGTANTAADKAEAVAAKVTDIKADIATNKADIAKNSARIDSLDKNVANLRKETRQGLAEQAALSGLFQPYNVGRFNVTAAVGGYKSESAVAIGTGFRFTENFAAKAGVAVGTSSGSSAAYHVGVNYEW
notes: Oligomer of about 170 kDa; also called allele 1 of 961
With B2, the binding result in data set [4] is reported as “binds”.
